Reference: the nanobody polyreactivity screen of Harvey et al. (2022)

Test: yeast display, Sf9 membrane polyspecificity reagent, FACS + sequencing; frameworks hold sequencing errors
How it was run: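 Polyreactivity labels are assigned by the sorting gate from which each nanobody was recovered. The gates were low and high (top ~1%), set on anti-HA fluorescence for expression and streptavidin fluorescence for reagent binding. Before sorting, galactose-induced (36–48 hours) yeast display cells were stained for 1 hour at 4 °C with 10% biotinylated, detergent-solubilized Sf9 membrane reagent.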
With “QVQLVESGGGLVQAGGSLRLSCAASGRIFVVYAMGWYRQAPGTETELVANITISGGRTYYADSVKGRFTISRDNAKNTVYVQMNSLKPEDTAVYYCAATSGALYYGYEYWGQGTQVTVSS” the “polyreactivity (PSR sort gate)” value was “low polyreactivity”. In the case of “QVQLVESGGGLVQAGGSLRLSCAASGSIFVYNAMGWYSPAPGQERELVAAITYSGGRTYYADSVKGRFTISRDNAKNTVYVQMNSLKPEDTAVDFCAADLTSKSSPQGYRYDYWGQGTQVTVSS”, the “polyreactivity (PSR sort gate)” value was “low polyreactivity”. In the case of “QVQLQESGGGLVQAGGSLRLSCAASGYISYFVGMGWYRQAPGKEREFVASIADGSNTYYADSVKGRFTISRDNAKNTVYLQRNSLKPEDTAVYYCAVEDSWTYRFDYWGQGTQVTVSS”, the “polyreactivity (PSR sort gate)” value was “high polyreactivity”. With “QVQLVESGGGLVQAGGSLRLSCAASGIFGSYAMGWYRQAPGKERELVAAISSGGSTYYADSVKGRFTISRDNAKNTVYLQMNSLKPEDTAVYYCAKRYGRAYRSYYWGQGTQVTVSS” the “polyreactivity (PSR sort gate)” value was “high polyreactivity”. In the case of “QVQLVESGGGLVQAGGSLRLSCAASGSTFSTNAMGWYRQAPGKERELVAAISRSGGSTYYADSVKGRFTISRDNAKNTFYLQMNSLKPEDTAVYYCARYSYRGTNVRYDYCGQGTQVTVSS”, the “polyreactivity (PSR sort gate)” value was “high polyreactivity”. With “QVQLVESGGGLVQAGGSLRLSCAASGRTFNVYAMGWYRQAPGKERELVAVITNGGSTNYADSVKGRFTISRDNAKNTVYLQMNSLKPEDTAVYYCAADYYASLTREDRDDYWGQGTQVTVSS” the “polyreactivity (PSR sort gate)” value was “low polyreactivity”. With “QVQLVESGGGLVQAGGSLRLSCAASGRPLGQNVMGWYRQAPGKERELVAASSSNTAGNTYYADSVKGRFTISRDNAKNTVYLQMNSLKAEDTAVYYCAKVDSFEAKLDYWGQGTQVTVSS” the “polyreactivity (PSR sort gate)” value was “low polyreactivity”. With “QVQLVESGGGLVQAGGSLRLSCAASGRTIYRNAMGWYRQAPGKERELVAAISRSGGRTFYAYSVKGRFTISRDNAKNTVYLQMNSLKPEDTEVYYCADESYGVRLPSGYWGQGTQVTVSS” the “polyreactivity (PSR sort gate)” value was “high polyreactivity”. In the case of “QVQLVESGGGLVQAGGSLRLICAASGRTFWNYAMGWYRQAPGKERELVAVISFSDGSTYYADSVKGRFTISRDNAKNTVYLQMNSLKPEDTAVYYGAAKGPRRWGSGFDYWGQGTQVTVSS”, the “polyreactivity (PSR sort gate)” value was “low polyreactivity”. For “QVQLVESGGGLVQAGGSLRLSCAASGGTFQYHAMGWYRQAPGKERELVAAITRSGGSTYYADSVKGRFTISRDNAKNTVYLQMNSLKPEDTAVYYCAVRYVYGYPRYNYWGQGTQVTVSS”, the “polyreactivity (PSR sort gate)” value was “high polyreactivity”. With “QVQLVESGGGLVQAGGSLRLSCAASGRIIKFYAMGWYRQAPGKERELVARISRSGGRTYYADSVKGRFTISRDNAKNTVYLQMNSLKPEDTAVYYCAADTQSVATYDYWGQGTQVTVSS” the “polyreactivity (PSR sort gate)” value was “low polyreactivity”. In the case of “QVQLVESGGGLVQAGGSLRLSCAASGRIFGYNAMGWYRQAPGKVRELVAAITTSGGSTYYADSVTGRFTISRDTAKNTVYLQMNSLKPEDTAVYYCARDSLQVFYQYASDDYWGQGTQVTVSS”, the “polyreactivity (PSR sort gate)” value was “low polyreactivity”. With “QVQLVESGGGLVQAGGSLRLSCAASGGIFYFNAMGWYRQAPGKERELVASITWSGGNTYYADSVKGRFTISRDNAKNTVYLQMNSLKPEDTAVYDCAADTQEYRPTYDYWGQGTQVTVSS” the “polyreactivity (PSR sort gate)” value was “low polyreactivity”. With “QVQLVESGGGLVQAGGSLRLSCAASGFTFWTYPMGWYIQAPGKERELVAAIDSGGSTYYADSVKGRFTISRDNAKNTVYLQMNSLKPEDTAVYYCNAGPSVTSGYDYDYRGQGTQVTVSS” the “polyreactivity (PSR sort gate)” value was “low polyreactivity”. For “QVQLVESGGGLVQAGGSLRLSCAASGSTFQGYAMGRYRQAPGKERELVAGITGSGGSSYYADSVKGRFTISRDNAKNTVYLQMNSLKPEDTAVYYCAARYYQSYYYKYYYWGQGTQVTVSS”, the “polyreactivity (PSR sort gate)” value was “high polyreactivity”. With “QVQLVESGGGLVQAGGSLRLICAASGRIFGLNAMGWYRQAPGKEREFVAAITWRGGRTYYADSVKGRFTISRDNAKNTVYLQMNSLKPEDTAVYYCAADGGSTLDYYWGQGTQVTVSS” the “polyreactivity (PSR sort gate)” value was “low polyreactivity”. In the case of “QVQLVESGGGLVQAGGSLRLSCAASGSTFQSNAMGWYRQAPGKERELVATISWSGGITYADSVKGRFTISRDNAKNTVYLQMNSLKPEDNAVHYFTDPDFDYWGQGTQVTLSS”, the “polyreactivity (PSR sort gate)” value was “low polyreactivity”. For “QVHLVESGGGLVQAGGSLRLSCAASGSIFAVYAMGWYRQAPGKERELVAAITRSGRTSYADSVKGRFTISRDNAKNTVYLQMNSLKPEDTAVFYCAVRTYYPTFGGFYYWGQGTQVTVSS”, the “polyreactivity (PSR sort gate)” value was “high polyreactivity”. With “QDQLVESGGGLVQAGGSLRLSCAASGGIFLYYSMGWYRQAPGKERELVAAISRGGGRTYYADSVKGRFTISRDNAKNTVYLHMNSLKPEDTAVYYCAVEYGTGYQWWEYYYWGQGTQVTVSS” the “polyreactivity (PSR sort gate)” value was “high polyreactivity”. With “QVQLVESGGGLVQAGGSLRLSCAASGLTFNTSAMGWSRQAPGKEREWVAAITSSGSITYYADSVKGRFTISRDNAKNTVYLQMNSLKPEDTAVYYCAAAVGYYAFGTYPFDDWPYDYWGQGTQVTVSS” the “polyreactivity (PSR sort gate)” value was “high polyreactivity”. With “QVQLVESGGGLVQAGGCLRLSCDASGITFDYYAMGWYRQAPVKESELVAAITNDGRTYNADSVKGRFTISLDNAKNTVYLQMNSLKPEDTADYYCARLTYYVNGRYDYWGQGTQVTVSS” the “polyreactivity (PSR sort gate)” value was “low polyreactivity”. For “QVQLVESGGGLVQAGGSLRLSCAASGFTLDQYAMGWYRQAPGKERELVAVITSGGNTYYADSVKGRFTISRDNAKNTVYLQMNSLKPEDTAVYYCAKDVSDPFYDPFEYWGQGTQVTVSS”, the “polyreactivity (PSR sort gate)” value was “low polyreactivity”. In the case of “QVQLVESGGGLVQAGGSLRLSCAASGFILFPYAMGWYRQAPGKERELVAAIRSDDTTYYADSVKGRFTISRDNAKNTVYLQMNSLKPEDTAVYYCNAARTRWATGYDYWGQGTQVTVSS”, the “polyreactivity (PSR sort gate)” value was “low polyreactivity”. In the case of “QVQLVESGGGLVQAGGSLRLSCAASGFTFFGYAMGWYRQAPGKERELVATISDTGGSTYADSVKGRFTISRDNAKNTVYLQMNSLKPEDTAVYYFNARSVFYSMDYWGQGTQVTVSS”, the “polyreactivity (PSR sort gate)” value was “low polyreactivity”. With “QVQLVESGGGLVQAGGSLRLSCAASGFTFGLYAMGWYRQAPGKERELVAAITWSGGSTYYADSVKGRFTISRDNAKNTVYLQMNSLKPEDTAFYYCNRLSNNREYDYWGQGTQVTLSS” the “polyreactivity (PSR sort gate)” value was “high polyreactivity”. For “QVQLVESGGGLVQAGGSHRLSCAASGTFKAYAMGWYRQAPGKERELVAVISNGGSTYYADSVKGRFTISRDNAKNTVYLQMNSLKPEDTAVYYCAARRGWYAYRFLSGSRLHYYWGQGTQVTVSS”, the “polyreactivity (PSR sort gate)” value was “high polyreactivity”. With “QVELVESGGGLVQAGGRPRLSCAASGSTFAGYAMGWERQAPGKERELVAAISRRGGSTYYADSVKGRFTISRDNAKNTVYLQMNSLKPEDTAVYFFARDYPLHYDYWGQGTQVTVSS” the “polyreactivity (PSR sort gate)” value was “high polyreactivity”. With “QVQLVESGGGLVQAGGSLRLSCAASGSTFSTNAMGWYRQAPGKERELVAAISRSGGRTYYADSVKGRFTISRDNAKNTVYLQMNSLKPEDTAVYYCNAVRRFASPSPHYYWGQGTQVTVSS” the “polyreactivity (PSR sort gate)” value was “high polyreactivity”. For “QVQLVESGGGLVQAGGSLRLSCAASGLTFHDYAMGWYIQAHVKERELVAGINSGGSTNYADSVKGRFTISRDNAKNTVYLQMNSLKPEDTAVYYCARGPQYDEGEYWGQCTQVTVSS”, the “polyreactivity (PSR sort gate)” value was “low polyreactivity”. For “QVQVVESGGGLVQAGGSLRLICAASGRIFDSNAMGWYRQEPVKERELVARIDPGDDTNSADSVKGRFTISRDNAKNTLYLQMNSLKPEDTAVYYCATDPDYVLYRTAYYEYDYWGQGTQVTVSS”, the “polyreactivity (PSR sort gate)” value was “low polyreactivity”. In the case of “QVQLVESGGGLVQAGGSLRLSCAASGFIFRYNAMGWNRQAPGKERELVARINSGVSTNYADSVKGRFTISRDNAKNTVYLQMNSLKPEDTAVYYCNARVRRGYSRFDYWGQGTQVTVSS”, the “polyreactivity (PSR sort gate)” value was “high polyreactivity”. In the case of “QVQLVESGGGLVQAGGSLRLSCAASGFTFFIYVMGWYRQAPGKEREYVAAISSSGDSTYYADSVKGRFTISRDNAKNTVYLQMNSLIPEDTAVYYCNAGDKVSSYWYDYWGQGTQVTVSS”, the “polyreactivity (PSR sort gate)” value was “low polyreactivity”. For “QVQLVESGGGLVQAGGSLRLSCAASGSTIRYYAMGWYRQAPGKEREFVAAITRSGGRTYYADSVKGRFTISRDNAKNTVYLQMNSLKPEDTADYYCAKVLYSPIGKYDYWGQGTQVTVSS”, the “polyreactivity (PSR sort gate)” value was “high polyreactivity”. In the case of “QVQLVESGGGLVQAGGSLRLSCAASGRIFRYYAMGWYRQATGKERELVASISSGGSTNYADSVKGRCTISRDNAKNTVYLQMNSLKPEDTAVYYCNAVLCFRAVYEYDYWGQGTQVTVSS”, the “polyreactivity (PSR sort gate)” value was “high polyreactivity”. With “QVQLVESGGGLVQAGGSLRLSCAASGRIFKVNTMGWYRQAPGKVRELVASIRGGGSTNYADSVKGRFTISRDNAKNTVYLQMNSLKPEDTAVYYCAAGTSKPTPIYGYWGQGTQVTGSS” the “polyreactivity (PSR sort gate)” value was “low polyreactivity”. In the case of “QVQLVESGGGLVQAGGSLRLSCAASGRTSVWYTMGWYRQAPGKEREFVASITGSGTYYADSVKGRFTISRDNAKNTVYLQMNSLKPEDTAVYYCAKRGYGYWGQGTQVTVSS”, the “polyreactivity (PSR sort gate)” value was “high polyreactivity”. In the case of “QVQLVESGGGLVQAGGSLRLSCAASGLTIKPNAMGWYRQAPGKERELVAAIDWSGGSTYCADSVKGRFTISRDNAKNTVDLQMNSLKPEDTAVYYCAADPPDRLFLYDYWGQGTQVTVSS”, the “polyreactivity (PSR sort gate)” value was “low polyreactivity”. With “QVQLVESGGGLVQAGGSLRLSCAASGNIFVFYVMGWYRQAPGKERELVASISSTGNTYYADSVKGRFTISRDNAKNTVYLQMNSLKPEDTAVYYCAAEYYSIRYGPHSIEVYGMDYWGQGTQVTVSS” the “polyreactivity (PSR sort gate)” value was “low polyreactivity”. In the case of “QVQLVESGGGLVQAGGSLRLSSAASGRIFPRYAMGWYSQAPGKERELVAAISGSGGGTYYADSVKGRFTISRDNAKNTVYLQMNSLKPEDTAVYYCAAVATQEKYDYWGQGTQVTVSS”, the “polyreactivity (PSR sort gate)” value was “low polyreactivity”. In the case of “QVQLVESGGGLVQAGGSLRLSCSASGSTFFIYAMGWYRQAPWKERELVAAIRSGGTYYADSVKGRFTISRDNAKITVYLQMKSLKPEDTAVYYCAARTRGFRYYYWGQGTQVTVSS”, the “polyreactivity (PSR sort gate)” value was “high polyreactivity”. For “QVQLVESGGGLVQAGGSLRLSCAASGRSFGLYAMGWYRQAPGKERELVAAISYSGGRTYYADSVKRRFTLSRDNAKKTVYLQRNILKPEDTGVYYCNKAWFPYYYYRFDYWGQGTQVTVSS”, the “polyreactivity (PSR sort gate)” value was “high polyreactivity”. With “KVQLVESGGGLVQAGGSLRLSCAASGRIFGRNAMGGYRQAPGKERELVAAINVSSGGTYYADSVKGRFTISRDNAKNTVYLQMNSLKPEDTAVYFCAARARWAGLRYTRYYYWGQGTQVTVSS” the “polyreactivity (PSR sort gate)” value was “high polyreactivity”. For “QVQLVESGGGLVQAGGSLRLSCAASGSIFKYYAKGWYRQAPGKERELVAAITIGGNTNYADSVKGRFTISRDNAKNTVYLQMNSLKPEDTAVYYCATGGYYSAIVYGGYDYWGHGTQVTVSS”, the “polyreactivity (PSR sort gate)” value was “low polyreactivity”.
